Data on 6 molecules can be found in patent US20230212239A1, “INHIBITORS OF CBL AUTOINHIBITION AND RELATED METHODS” (THE HOSPITAL FOR SICK CHILDREN, priority 2020, published 2023).

The target of assay [1] is T1, CBL TKBD-LHR-RING (2-436), unphosphorylated (Homo sapiens, UniProt P22681).
T1 construct: GST (N, cleaved yes); made in house; host or cells: E. coli BL-21
T1 sequence (P22681 2-436): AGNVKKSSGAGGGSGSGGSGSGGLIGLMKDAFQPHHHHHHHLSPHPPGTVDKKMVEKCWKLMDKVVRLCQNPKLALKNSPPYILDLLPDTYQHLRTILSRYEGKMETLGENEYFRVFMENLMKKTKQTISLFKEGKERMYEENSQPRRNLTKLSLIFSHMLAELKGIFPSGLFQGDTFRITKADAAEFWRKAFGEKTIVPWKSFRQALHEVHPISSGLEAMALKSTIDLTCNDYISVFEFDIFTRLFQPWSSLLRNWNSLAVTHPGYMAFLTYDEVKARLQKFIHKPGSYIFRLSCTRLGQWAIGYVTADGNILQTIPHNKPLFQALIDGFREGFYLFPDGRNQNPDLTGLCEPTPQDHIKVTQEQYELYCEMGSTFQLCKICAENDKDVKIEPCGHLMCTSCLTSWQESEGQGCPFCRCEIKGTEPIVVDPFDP
Briefly: In vitro ubiquitination assay, anti-ubiquitin immunoblot. Format: biochemical. Conditions: anti-Ub immunoblot and E3LITE (FIGS. 11A,B, 10B-D). From the text: Given that binding of SLAP2 and the LHR-RING would be mutually exclusive (FIG. 8C), we reasoned that binding of SLAP2 to CBL could displace the LHR-RING, thereby promoting the catalytically competent conformation. To test this hypothesis, an in vitro ubiquitination assay in which E3 ligase activity is detected by a smear at high molecular weight on an anti-ubiquitin (Ub) immunoblot was employed. […] To further compare and quantify CBL ubiquitin ligase activity, a chemiluminescence based assay which measures the total amount of polyubiquitylated products formed in an in vitro reaction was used. In this assay, production of polyubiquitylated proteins increased upon addition of SLAP2 or pSLAP2 to CBL, compared to CBL alone (FIG. 9C and FIG. 10A).
In vitro ubiquitination reactions were prepared with 20 pmol of CBL or pCBL and 60 pmol of hSLAP2 or phosphorylated hSLAP2 (pSLAP2) for both WT and mutants. Reagents were thawed and reactions prepared on ice. CBL and SLAP2 were mixed in PBS (with 5 mM βME, 5 mM caproic acid, 0.5 mM PMSF, and 0.5 mM Na3VO4) at rt for 5-10 min before addition of master mix (42 pmol E1 (UBE1, Boston Biochem or Ubiquitin-Proteasome Biotechnologies), 0.1 µmol E2 (UbcH5b/UBE2D2, Boston Biochem #E2-622), […], and 11.6 µmol ubiquitin (Boston Biochem #U-100H) in reaction buffer (0.2 M Tris pH 7.5, 10 mM MgCl2, 2 mM DTT). Reactions were incubated at 30° C. shaking at 500-700 rpm for 60-110 minutes and terminated by addition of SDS 2X loading buffer and boiling for 5-10 minutes. Equal volumes of each reaction were loaded on 12.5% SDS-PAGE gel, transferred to PVDF membrane, and immunoblotted for ubiquitin as per standard protocols (anti-ubiquitin antibody P4G7, BioLegend #838701, 1:1000; anti-mouse IgG HRP-linked antibody, Cell Signaling Technology #7076, 1:10000; Western Lightning Plus ECL, Perkin Elmer).
A general note: Immunoblotting shows a protein as a band on a membrane.

Assay [2] deals with CBL TKBD. Briefly: Co-purification of CBL TKBD with Trx-His-SLAP2/SLAP (Duet co-expression, Ni-NTA, SDS-PAGE). It counts as binding. Conditions: low salt concentration (0.15 M NaCl). From the text: (§1) To validate the CBL/SLAP2 binding interface, a series of mutants in a Duet co-expression vector system was generated for co-purification trials. The SLAP2 sequence was preceded by thioredoxin (Trx) and His-tag fusion proteins to allow co-purification of CBL TKBD that was bound to Trx-His-SLAP2 during the initial affinity chromatography purification step. Surface residues deemed to be important to the CBL/SLAP2 interface, but not CBL function or folding, were mutated to disrupt CBL/SLAP2 binding (FIG. 5C and FIG. 6). In our structure, SLAP2 Gly240 locates close to CBL Met269 and Ala270, such that mutation to a bulky Arg residue (G240R) could cause sterical constraints. Similarly, SLAP2 Leu241 is situated in a hydrophobic cleft composed of CBL Ala223, Trp258, and Val263; mutation to Arg (L241R) was predicted to disturb this binding pocket. Mutation of CBL Ala223 to Arg (A223R) would likewise disrupt this pocket, with CBL/SLAP2 double mutant A223R/L241R predicted to drastically disturb binding through sterical constraints and charge repulsion. (For clarity, CBL mutations herein are indicated in italics, SLAP2 in regular font.) Similarly, single or double mutation of CBL Ser226 or SLAP2 Ser244, whose side chain hydroxyl groups are in close proximity to one another, to charged Glu residues (S226E and S244E) was anticipated to interfere with CBL/SLAP2 binding. Finally, given that SLAP2 binds CBL as an α-helix, mutation of Leu245, located in the center of this α-helix, to proline (L245P) was expected to interrupt the helical structure and thus prevent SLAP2 binding. […] However, double mutation of the CBL/SLAP2 interface (A223R/L241R and S226E/S244E; FIG. 5D, lower panel) was not tolerated, even at low salt concentration.
(§2) For co-purification of CBL and SLAP2/SLAP, Duet-His-hSLAP2-CBL 29-261 Δ198-229 and 29-254 Δ198-229, Duet-His-Δlinker-hSLAP2-CBL WT and point mutants, and Duet-His-mSLAP-CBL WT and point mutants were overexpressed in E. coli BL-21 as above or TKB1 competent cells (Stratagene) as per manufacturer’s instructions, and cells harvested as above (except 100 mL of LB, overnight at 16-18° C., and 0.35-0.5 mM IPTG induction). Cell pellets were resuspended in either high or low salt (as for high salt except 25 mM HEPEs pH 7.5, 150 mM NaCl) lysis buffer and purified as above on Ni-NTA agarose (Qiagen) with wash buffer (25 mM HEPEs pH 7.5, 150 mM NaCl, 2% glycerol, 20 mM imidazole, 10 mM βME). Bead slurry was mixed with SDS 2X loading buffer (125 mM Tris pH 6.8, 4% SDS, 20% glycerol, 0.715 M βME, bromophenol blue), boiled, and analyzed by 10 or 12.5% SDS-PAGE, stained with Coomassie blue.

In assay [3] the target is T2, CBL TKBD (Homo sapiens, UniProt P22681).
T2 construct: with CBL (47-357) cloned in frame into MCS2 of the same pETDuet-1 vector; made in house
T2 sequence (P22681 47-357): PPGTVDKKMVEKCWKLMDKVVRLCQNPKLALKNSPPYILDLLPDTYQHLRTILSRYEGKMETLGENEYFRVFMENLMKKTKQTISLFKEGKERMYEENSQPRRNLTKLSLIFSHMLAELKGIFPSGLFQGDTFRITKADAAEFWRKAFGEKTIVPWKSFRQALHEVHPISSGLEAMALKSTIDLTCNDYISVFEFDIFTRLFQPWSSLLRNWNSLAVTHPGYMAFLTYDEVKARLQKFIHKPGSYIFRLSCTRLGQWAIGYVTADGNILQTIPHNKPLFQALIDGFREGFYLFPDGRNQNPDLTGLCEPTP
Described as above. Format: binding. Conditions: conditions where SLAP2 was tyrosine phosphorylated (TKB1), low salt.
Text: as §1, §2

B1: SLAP2 R242A: SLAP2 mutant in the SLAP2/SLAP2 interface (protein)
chain: EAERSKATAVALGSFPAGGPAELSLRLGEPLTIVSEDGDWWTVLSEVSGREYNIPSVHVAKVSHGWLYEGLSREKAEELLLLPGNPGGAFLIRESQTRRGSYSLSVRLSRPASWDRIRHYRIHCLDNGWLYISPRLTFPSLQALVDHYSELADDICCLLKEPCVLQRAGPLPGKDIPLPVTVQRTPLNWKELDSSLLFSEAATGEESLLSEGLAESLSFYISLNDEAVSLDDA
modifications: left off: large carriers; small tags and cut ends
notes: SLAP2 mutant in the SLAP2/SLAP2 interface
Consider B1, for which, in assay [1], the “stimulation/activation of CBL ubiquitination activity by SLAP2 mutants versus WT” value is given as “did not alter SLAP2 or pSLAP2 activation of CBL”. In addition, the “CBL TKBD co-purification” value in the assay with CBL TKBD [2] is on record as “did not significantly impact co-purification of CBL”.

B2: SLAP2 S246/250E: SLAP2 double mutant in the SLAP2/SLAP2 interface (protein)
chain: EAERSKATAVALGSFPAGGPAELSLRLGEPLTIVSEDGDWWTVLSEVSGREYNIPSVHVAKVSHGWLYEGLSREKAEELLLLPGNPGGAFLIRESQTRRGSYSLSVRLSRPASWDRIRHYRIHCLDNGWLYISPRLTFPSLQALVDHYSELADDICCLLKEPCVLQRAGPLPGKDIPLPVTVQRTPLNWKELDSSLLFSEAATGEESLLSEGLRESLEFYIELNDEAVSLDDA
modifications: left off: large carriers; small tags and cut ends
notes: SLAP2 double mutant in the SLAP2/SLAP2 interface
B2: the “stimulation/activation of CBL ubiquitination activity by SLAP2 mutants versus WT” value in assay [1] is “did not alter SLAP2 or pSLAP2 activation of CBL”. Besides, the “CBL TKBD co-purification” value in the assay with CBL TKBD [2] is given as “did not significantly impact co-purification of CBL”.

B3: SLAP2 Y248F: SLAP2 Tyr248 to Phe mutant, expressed under phosphorylating conditions (protein)
chain: EAERSKATAVALGSFPAGGPAELSLRLGEPLTIVSEDGDWWTVLSEVSGREYNIPSVHVAKVSHGWLYEGLSREKAEELLLLPGNPGGAFLIRESQTRRGSYSLSVRLSRPASWDRIRHYRIHCLDNGWLYISPRLTFPSLQALVDHYSELADDICCLLKEPCVLQRAGPLPGKDIPLPVTVQRTPLNWKELDSSLLFSEAATGEESLLSEGLRESLSFFISLNDEAVSLDDA
modifications: left off: large carriers; small tags and cut ends
notes: SLAP2 Tyr248 to Phe mutant, expressed under phosphorylating conditions
In the case of B3, the “CBL TKBD co-purification” value with CBL TKBD [3] is on record as “co-purified”.

B4: SLAP2 I249W: SLAP2 mutant in the SLAP2/SLAP2 interface (protein)
chain: EAERSKATAVALGSFPAGGPAELSLRLGEPLTIVSEDGDWWTVLSEVSGREYNIPSVHVAKVSHGWLYEGLSREKAEELLLLPGNPGGAFLIRESQTRRGSYSLSVRLSRPASWDRIRHYRIHCLDNGWLYISPRLTFPSLQALVDHYSELADDICCLLKEPCVLQRAGPLPGKDIPLPVTVQRTPLNWKELDSSLLFSEAATGEESLLSEGLRESLSFYWSLNDEAVSLDDA
modifications: left off: large carriers; small tags and cut ends
notes: as for B1
Regarding B4, in assay [1], the “stimulation/activation of CBL ubiquitination activity by SLAP2 mutants versus WT” value was “did not alter SLAP2 or pSLAP2 activation of CBL”. Further, the “CBL TKBD co-purification” value with CBL TKBD [2] is reported as “did not significantly impact co-purification of CBL”.

B5: Phosphorylated SLAP2 L241R: phosphorylated SLAP2 point mutant L241R at CBL/SLAP2 interface (protein, UniProt Q9H6Q3 2-261, looked up, variant L241R)
Src-like-adapter 2: GSLPSRRKSLPSPSLSSSVQGQGPVTMEAERSKATAVALGSFPAGGPAELSLRLGEPLTIVSEDGDWWTVLSEVSGREYNIPSVHVAKVSHGWLYEGLSREKAEELLLLPGNPGGAFLIRESQTRRGSYSLSVRLSRPASWDRIRHYRIHCLDNGWLYISPRLTFPSLQALVDHYSELADDICCLLKEPCVLQRAGPLPGKDIPLPVTVQRTPLNWKELDSSLLFSEAATGEESLLSEGRRESLSFYISLNDEAVSLDDA
modifications: tyrosine phosphorylated
notes: phosphorylated SLAP2 point mutant L241R at CBL/SLAP2 interface
B5: the “stimulation/activation of CBL ubiquitination activity by SLAP2 mutants versus WT” value in assay [1] is on record as “reduced stimulation of CBL ubiquitination activity compared to pSLAP2 WT”.

B6: Phosphorylated SLAP2 S244E: phosphorylated SLAP2 point mutant S244E at CBL/SLAP2 interface (protein, UniProt Q9H6Q3 2-261, looked up, variant S244E)
Src-like-adapter 2: GSLPSRRKSLPSPSLSSSVQGQGPVTMEAERSKATAVALGSFPAGGPAELSLRLGEPLTIVSEDGDWWTVLSEVSGREYNIPSVHVAKVSHGWLYEGLSREKAEELLLLPGNPGGAFLIRESQTRRGSYSLSVRLSRPASWDRIRHYRIHCLDNGWLYISPRLTFPSLQALVDHYSELADDICCLLKEPCVLQRAGPLPGKDIPLPVTVQRTPLNWKELDSSLLFSEAATGEESLLSEGLREELSFYISLNDEAVSLDDA
modifications: phosphorylated
notes: phosphorylated SLAP2 point mutant S244E at CBL/SLAP2 interface
Regarding B6, the “stimulation/activation of CBL ubiquitination activity by SLAP2 mutants versus WT” value in assay [1] was “less stimulation of CBL ubiquitination activity than pSLAP2 WT”.
